Source: patent US20130251712A1 (NATIONAL RESEARCH COUNCIL OF CANADA, published 2013)

T1: TβR2ECD-cK5 (TβR2ECD with linker cassette fused to the cK5 C-terminal construct) (human)
T1 construct: Conditioned medium of 293 cells, expressed alone; also called TβR2-K5coil with internal cys/TEV
T1 chain: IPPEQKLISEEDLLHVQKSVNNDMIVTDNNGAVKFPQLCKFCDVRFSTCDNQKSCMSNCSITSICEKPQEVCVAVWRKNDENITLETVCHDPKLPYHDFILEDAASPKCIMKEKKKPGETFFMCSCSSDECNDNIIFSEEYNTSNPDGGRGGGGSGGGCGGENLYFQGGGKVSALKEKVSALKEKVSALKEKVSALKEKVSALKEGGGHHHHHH

T2: TβR2cK (R2cK), receptor-coil fusion with thrombin cleavage site, expressed alone (human)
T2 construct: Conditioned medium of 293 cells; also called TβR2cKcoil
T2 chain: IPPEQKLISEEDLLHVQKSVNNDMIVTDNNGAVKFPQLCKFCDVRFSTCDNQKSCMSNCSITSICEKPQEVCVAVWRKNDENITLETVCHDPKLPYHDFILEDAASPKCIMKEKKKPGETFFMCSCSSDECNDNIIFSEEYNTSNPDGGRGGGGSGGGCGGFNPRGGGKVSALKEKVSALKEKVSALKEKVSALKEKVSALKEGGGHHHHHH


What was measured:
[1] = target: T1, TβR2ECD-cK5 (TβR2ECD with linker …); assay: non-reducing SDS gel and western blot with anti-TβR2 antibody; E/K coil dimer fixed by an interchain disulfide
[2] = target: T2, TβR2cK (R2cK), receptor-coil fusion …; assay: non-reducing SDS gel and western blot with anti-TβRII antibody; E/K coil dimer fixed by an interchain disulfide
Procedure: Plasmids encoding the R2cK and R2cE constructs were transfected separately or co-transfected into 293 cells. Conditioned media from these cells were then analyzed by western blot to detect R2cK and R2cE expression and tested for TGF-β3 neutralization (FIG. 6A-C). By themselves R2cE or R2cK were unable to neutralize TGF-β3. […] Based on their activities in FIG. 6A, these forms are non-productive, i.e. cannot neutralize TGF-β. Expressed together, R2cE+R2cK predominantly form dimers of about 80 Kd and only minimal amounts of the monomers are seen in the non-reducing gel (FIG. 6B, lane 3), indicating a covalent, inter-chain disulfide bridge has been established (Click, FIG. 6B). Subsequent cleavage of R2cE+R2cK with a sufficient amount of thrombin (++) generates an R2c+R2c dimer (about 60 Kd) that is held together by an inter-chain disulfide (in the non-reducing SDS gel) and that no longer contains the coils (Cleave, FIG. 6C). The resultant TGF-/3 trap generated by the clamp/click/cleave (CCC) process described above is depicted as a molecular model in FIG. 7.

binding result [1]	binding result [2]	Binder
binds	–	TβR2ECD-cE5 (TβR2ECD with linker cassette fused to the cE5 C-terminal construct) (receptor, Secreted into conditioned medium of transfected 293 cells; tested unpurified, expressed alone; also called TβR2-E5coil with internal cys/TEV) IPPEQKLISEEDLLHVQKSVNNDMIVTDNNGAVKFPQLCKFCDVRFSTCDNQKSCMSNCSITSICEKPQEVCVAVWRKNDENITLETVCHDPKLPYHDFILEDAASPKCIMKEKKKPGETFFMCSCSSDECNDNIIFSEEYNTSNPDGGRGGGGSGGGCGGENLYFQGGGEVSALEKEVSALEKEVSALEKEVSALEKEVSALEKGGGHHHHHH
–	binds	TβR2cE (R2cE), receptor-coil fusion with thrombin cleavage site, expressed alone (receptor, Conditioned medium of 293 cells; also called TβR2cEcoil) IPPEQKLISEEDLLHVQKSVNNDMIVTDNNGAVKFPQLCKFCDVRFSTCDNQKSCMSNCSITSICEKPQEVCVAVWRKNDENITLETVCHDPKLPYHDFILEDAASPKCIMKEKKKPGETFFMCSCSSDECNDNIIFSEEYNTSNPDGGRGGGGSGGGCGGFNPRGGGEVSALEKEVSALEKEVSALEKEVSALEKEVSALEKGGGHHHHHH
